Test [1] has as its target T1, CD33 expressed on MV4-11 human AML cells (human, UniProt P20138 18-364).
T1 construct: whole, on cells; also called cell-expressed CD33
The test is described as follows: flow cytometry on MV4-11 cells, anti-human IgG secondary. The source says:
Human AML cell line MV4-11, expressing CD33 was used to assay the binding of TriNKETs to the tumor associated antigen.

Test [2] addresses T2, Tyrp-1 on B16F10 melanoma cells (UniProt P07147 25-537, limits assumed).
T2 construct: whole, on cells; also called Tyrp-1-positive B16F10 melanoma cells; B16F10 tumor cells
The test is described as follows: flow cytometry on B16F10 tumor cells, 60 ug/mL with four-fold dilutions, goat anti-mouse PE secondary (FIG. 50A). Here is the method: 60 μg/mL of indicated antibodies with four-fold dilutions were added to 2×10⁵ B16F10 tumor cells (FIG. 50A) or EL4-mNKG2D cells (FIG. 50B). Binding was assessed using a goat anti-mouse PE secondary antibody followed by flow cytometric analysis.

T1 sequence (P20138 18-364): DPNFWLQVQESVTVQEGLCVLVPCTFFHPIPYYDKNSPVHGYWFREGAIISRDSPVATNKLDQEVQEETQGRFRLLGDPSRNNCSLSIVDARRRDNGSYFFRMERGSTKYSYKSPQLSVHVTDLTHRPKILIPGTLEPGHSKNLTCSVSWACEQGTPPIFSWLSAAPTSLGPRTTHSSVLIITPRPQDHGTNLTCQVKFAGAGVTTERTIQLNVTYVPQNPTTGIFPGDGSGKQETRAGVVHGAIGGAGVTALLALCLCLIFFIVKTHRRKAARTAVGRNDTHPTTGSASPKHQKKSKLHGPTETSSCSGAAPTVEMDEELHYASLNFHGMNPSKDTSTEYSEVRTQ

B1: CD33-TriNKET-C26 (ADI-28226 and a CD33-binding domain) (bispecific antibody, V domains shown)
VH 1: QVQLQQWGAGLLKPSETLSLTCAVYGGSFSGYYWSWIRQPPGKGLEWIGEIDHSGSTNYNPSLKSRVTISVDTSKNQFSLKLSSVTAADTAVYYCARARGPWSFDPWGQGTLVTVSS
VL 1: DIQMTQSPSTLSASVGDRVTITCRASQSISSWLAWYQQKPGKAPKLLIYKASSLESGVPSRFSGSGSGTEFTLTISSLQPDDFATYYCQQYGSFPITFGGGTKVEIK
VH 2: QVQLVQSGAEVKKPGASVKVSCKASGYTFTDYVVHWVRQAPGQGLEWMGYINPYNDGTKYNEKFKGRVTMTRDTSISTAYMELSRLRSDDTAVYYCARDYRYEVYGMDYWGQGTLVTVSS
VL 2: DIVLTQSPASLAVSPGQRATITCTASSSVNYIHWYQQKPGQPPKLLIYDTSKVASGVPARFSGSGSGTDFTLTINPVEANDTANYYCQQWRSYPLTFGQGTKLEIK
notes: also called C26-TriNKET-CD33; CD33-targeting TriNKET
In the case of B1, the binding result in test [1] is on record as “binds”.

B2: CD33-TriNKET-F04 (ADI-29404 and a CD33-binding domain) (bispecific antibody, V domains shown)
VH 1: B1 VH 1
VL 1: DIQMTQSPSTLSASVGDRVTITCRASQSISSWLAWYQQKPGKAPKLLIYKASSLESGVPSRFSGSGSGTEFTLTISSLQPDDFATYYCEQYDSYPTFGGGTKVEIK
VH 2: B1 VH 2
VL 2: B1 VL 2
notes: also called F04-TriNKET-CD33; CD33-targeting TriNKET
For the molecule B2, the binding result in test [1] is recorded as “binds”.

B3: mcFAE-C26.99 TriNKET (bispecific antibody, mouse IgG2c)
light 1: DIQMTQSPSTLSASVGDRVTITCRASQSISSWLAWYQQKPGKAPKLLIYKASSLESGVPSRFSGSGSGTEFTLTISSLQPDDFATYYCQQYGSFPITFGGGTKVEIKRADAAPTVSIFPPSSEQLTSGGASVVCFLNNFYPKDINVKWKIDGSERQNGVLNSWTDQDSKDSTYSMSSTLTLTKDEYERHNSYTCEATHKTSTSPIVKSFNRNEC
heavy 1: QVQLQQWGAGLLKPSETLSLTCAVYGGSFSGYYWSWIRQPPGKGLEWIGEIDHSGSTNYNPSLKSRVTISVDTSKNQFSLKLSSVTAADTAVYYCARARGPWSFDPWGQGTLVTVSSAKTTAPSVYPLAPVCGGTTGSSVTLGCLVKGYFPEPVTLTWNSGSLSSGVHTFPALLQSGLYTLSSSVTVTSNTWPSQTITCNVAHPASSTKVDKKIEPRVPITQNPCPPLKECPPCAAPDLLGGPSVFIFPPKIKDVLMISLSPMVTCVVVDVSEDDPDVQISWFVNNVEVHTAQTQTHREDYNSTLRVVSALPIQHQDWMSGKEFKCKVNNRALPSPIEKTISKPRGPVRAPQVYVLPPPAEEMTKKEFSLTCMIKGFLPAEIAVDWTSNGRTEQNYKNTATVLDSDGSYFMYSRLRVQKSTWERGSLFACSVVHEGLHNHLTTKTISRSLGK
light 2: DIQMSQSPASLSASVGETVTITCRASGNIYNYLAWYQQKQGKSPHLLVYDAKTLADGVPSRFSGSGSGTQYSLKISSLQTEDSGNYYCQHFWSLPFTFGSGTKLEIKRADAAPTVSIFPPSSEQLTSGGASVVCFLNNFYPKDINVKWKIDGSERQNGVLNSWTDQDSKDSTYSMSSTLTLTKDEYERHNSYTCEATHKTSTSPIVKSFNRNEC
heavy 2: EVQLQQSGAELVRPGALVKLSCKTSGFNIKDYFLHWVRQRPDQGLEWIGWINPDNGNTVYDPKFQGTASLTADTSSNTVYLQLSGLTSEDTAVYFCTRRDYTYEKAALDYWGQGASVIVSSAKTTAPSVYPLAPVCGGTTGSSVTLGCLVKGYFPEPVTLTWNSGSLSSGVHTFPALLQSGLYTLSSSVTVTSNTWPSQTITCNVAHPASSTKVDKKIEPRVPITQNPCPPLKECPPCAAPDLLGGPSVFIFPPKIKDVLMISLSPMVTCVVVDVSEDDPDVQISWFVNNVEVHTAQTQTHREDYNSTLRVVSALPIQHQDWMSGKEFKCKVNNRALPSPIEKTISKPRGPVRAPQVYVLPPPAEEMTKKEFSLTCMITGFLPAEIAVDWTSNGRTEQNYKNTATVLDSDGSYLMYSKLTVQKSTWERGSLFACSVVHEGLHNHLTTKTISRSLGK
notes: also called murine cFAE-C26.99 TriNKET; TA99 TriNKET
For B3, in test [2], the binding result is reported as “binds”.

Values taken from patent US20200095327A1 (DRAGONFLY THERAPEUTICS, published 2020).
